Test [1] addresses T1, hCMV gM + gN (co-expressed in HEK293T cells) (human cytomegalovirus, UniProt P16733 1-372; P16795 22-138).
T1 sequence 1: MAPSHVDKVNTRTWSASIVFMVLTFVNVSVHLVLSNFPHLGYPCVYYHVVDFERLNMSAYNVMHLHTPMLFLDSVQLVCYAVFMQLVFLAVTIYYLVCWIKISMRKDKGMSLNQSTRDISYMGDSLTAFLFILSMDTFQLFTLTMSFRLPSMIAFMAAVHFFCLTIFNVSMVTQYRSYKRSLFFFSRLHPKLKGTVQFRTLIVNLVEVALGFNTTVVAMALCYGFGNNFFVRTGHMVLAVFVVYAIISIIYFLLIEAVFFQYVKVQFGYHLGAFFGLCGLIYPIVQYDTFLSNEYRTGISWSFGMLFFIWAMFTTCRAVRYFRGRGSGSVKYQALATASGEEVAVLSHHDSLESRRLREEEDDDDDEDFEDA
T1 sequence 2: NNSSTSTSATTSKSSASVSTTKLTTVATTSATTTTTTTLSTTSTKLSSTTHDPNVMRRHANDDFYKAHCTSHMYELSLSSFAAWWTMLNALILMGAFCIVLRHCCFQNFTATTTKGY
Description: cell-based or functional assay.

The target in test [2] is T1, hCMV gM + gN (co-expressed in HEK293T …). The test can be described thus: cell-based or functional assay. This is another data set of the same source.

B1: 6L3 (antibody, V domains shown)
VH: EVRLEESGGGLVQPGGSLRLSCAASGFTVSTTYMAWVRQAPGKGLEWVSLIHTGGIFGVGGTSYADSVKGRFTISRDTSKNTVSLQMSSLRVEDTAIYFCAREHRGTIDAFDAWGQGTVVIVSS
VL: DIHMTQSPSSLSASVGDRVTITCRASQNIRNYLNWYQHKPGKAPKLLIYTTSRLQSGVPSRFSGSGSGTDFTLTVNSLQPEDFASYYCQQSYDGWTFGQGTKVEMK
On to B1, for which, in test [1], the “90% Neutralization ARPE” value amounted to 10 µg/mL and the “90% Neutralization MRC-9” value was 30 µg/mL. Also, the “50% Neutralization ARPE” value in test [2] is at most 2 µg/mL.

The values above are taken from patent US20170129940A1 (INSTITUTE FOR RESEARCH IN BIOMEDICINE, published 2017).
